Laboratory results published in patent US20090318342A1, “Compounds” (IMPERIAL INNOVATIONS LIMITED, priority 2005, published 2009).

Molecular target: T1, ADAMTS-4 (Homo sapiens, UniProt O75173)
T1 sequence (O75173 213-837): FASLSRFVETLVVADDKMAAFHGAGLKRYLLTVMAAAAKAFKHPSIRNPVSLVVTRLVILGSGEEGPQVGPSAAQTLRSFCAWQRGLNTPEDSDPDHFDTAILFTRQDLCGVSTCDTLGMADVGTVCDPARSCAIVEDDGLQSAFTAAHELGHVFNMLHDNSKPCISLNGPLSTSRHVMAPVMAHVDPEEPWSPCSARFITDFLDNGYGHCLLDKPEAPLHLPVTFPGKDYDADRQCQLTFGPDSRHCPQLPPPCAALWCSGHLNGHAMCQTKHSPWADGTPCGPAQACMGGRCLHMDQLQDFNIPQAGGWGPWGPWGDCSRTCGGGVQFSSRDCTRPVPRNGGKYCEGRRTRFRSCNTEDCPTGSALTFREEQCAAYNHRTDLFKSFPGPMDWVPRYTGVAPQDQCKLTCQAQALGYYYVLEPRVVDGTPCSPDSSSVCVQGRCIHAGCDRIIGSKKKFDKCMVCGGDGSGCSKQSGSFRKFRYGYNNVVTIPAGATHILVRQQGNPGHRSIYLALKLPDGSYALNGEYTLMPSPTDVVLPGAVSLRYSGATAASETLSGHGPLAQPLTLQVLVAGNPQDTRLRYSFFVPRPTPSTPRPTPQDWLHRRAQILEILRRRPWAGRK
Experiment: Aggrecanase assay with GST-IGD-FLAG substrate, ADAMTS-4
Format: biochemical
Conditions: Table 3, pH 7.5, 37° C., read-out: Ki(app) ADAMTS-4
Experimental: FIG. 8. Graphs of Ki(app) determination. The GST-IGD-FLAG substrate assay was used to determine the Ki(app) of the N-terminal reactive site mutants against ADAMTS-4 (filled squares) and ADAMTS-5 (open circles).
The substrate containing glutathione S-transferase (GST) fused with the interglobular domain (IGD) of aggrecan (Tyr^331 to Gly^457) attached with a C-terminal FLAG sequence (GST-IGD-FLAG) was prepared by cloning it into pGEX-4T1 at the EcoR1 and Xho1 cloning sites. This substrate was expressed in E. coli strain BL-21 (non-DE3) transfected with the pGEX4T1 GST-IGD-FLAG plasmid by induction with […] isopropyl-beta-D-thiogalactopyranoside (IPTG). […] The concentration of intact substrate (52 kDa) was determined by comparison with Coomassie Brilliant Blue staining of known amounts of bovine serum albumin (GE Healthsciences, Buckinghampshire, UK). […]
Aggrecanase assays were carried out in 50 mM Tris HCl pH 7.5, 150 mM NaCl, 10 mM CaCl2, 0.02% NaN3, 0.05% Brij-35 at 37° C. […] The stained gels were then scanned using a scanning densitometer (Biorad GS-710, Hemel Hempstead, UK) and the band intensity of the product (17 kDa) quantified using the 1D Phoretix quantification software (Nonlinear Dynamics, Newcastle upon Tyne, UK). Background subtraction was done using the rolling ball method, and band intensity expressed as pixel volumes.

Row | Ki | Molecule
1 | 0.0024 ± 0.0016 µM | N-TIMP-3: N-terminal inhibitory domain of TIMP-3 (residues 1 to 121), C-terminally His-tagged, wild-type (protein) CTCSPSHPQDAFCNSDIVIRAKVVGKKLVKEGPFGTLVYTIKQMKMYRGFTKMPHVQYIHTEASESLCGLKLEVNKYQYLLTGRVYDGKMYTGLCNFVERWDQLTLSQRKGLNYRYHLGCN
2 | 0.025 ± 0.003 µM | -1A: N-TIMP-3 mutant with the addition of an N-terminal alanine extension (-1A) (protein) ACTCSPSHPQDAFCNSDIVIRAKVVGKKLVKEGPFGTLVYTIKQMKMYRGFTKMPHVQYIHTEASESLCGLKLEVNKYQYLLTGRVYDGKMYTGLCNFVERWDQLTLSQRKGLNYRYHLGCN
